Test system: Escherichia coli TOP10
Assay: shrunken log2 fold change of peptide-encoding DNA abundance (4.5 h post-induction vs induction); higher = less antimicrobial activity (less host growth inhibition)
Conditions: time post-induction: 4.5 h; library: site-saturation at positions 5, 18, 19, 20
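Also: peptides expressed intracellularly from a pBAD plasmid library in pooled LB shake-flask culture, induced with 0.3% L-arabinose, DNA abundance read by NGS, three biological replicates, DESeq2 with apeglm shrinkage.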

Row | Sequence | shrunken log2 fold change
1 | RRIRPRPPRLPRPRPRPNTLPRP | -0.468
2 | RRIRPRPPRLPRPRPRPNTTPRP | -0.131
3 | RRIRPRPPRLPRPRPRPNVIPRP | -0.451
4 | RRIRPRPPRLPRPRPRPNVWPRP | 0.183
5 | RRIRPRPPRLPRPRPRPNYKPRP | -0.537
6 | RRIRPRPPRLPRPRPRPNYWPRP | -0.234
7 | RRIRPRPPRLPRPRPRPPASPRP | 0.559
8 | RRIRPRPPRLPRPRPRPPDYPRP | -0.107
9 | RRIRPRPPRLPRPRPRPPFSPRP | 0.0978
10 | RRIRPRPPRLPRPRPRPPGSPRP | 0.0805
11 | RRIRPRPPRLPRPRPRPPHEPRP | -0.0736
12 | RRIRPRPPRLPRPRPRPPIPPRP | 0.15
13 | RRIRPRPPRLPRPRPRPPKAPRP | -0.0122
14 | RRIRPRPPRLPRPRPRPPLEPRP | 0.179
15 | RRIRPRPPRLPRPRPRPPPFPRP | 0.277
16 | RRIRPRPPRLPRPRPRPPPMPRP | 0.52
17 | RRIRPRPPRLPRPRPRPPQEPRP | 0.727
18 | RRIRPRPPRLPRPRPRPPQKPRP | 0.19
19 | RRIRPRPPRLPRPRPRPPQYPRP | 0.189
20 | RRIRPRPPRLPRPRPRPPRIPRP | 0.233
21 | RRIRPRPPRLPRPRPRPPRKPRP | 0.79
22 | RRIRPRPPRLPRPRPRPPSDPRP | 0.128

Row | Sequence | shrunken log2 fold change
23 | RRIRPRPPRLPRPRPRPPSFPRP | 0.262
24 | RRIRPRPPRLPRPRPRPPVDPRP | 0.52
25 | RRIRPRPPRLPRPRPRPPWGPRP | 0.34
26 | RRIRPRPPRLPRPRPRPPWMPRP | 0.407
27 | RRIRPRPPRLPRPRPRPPYCPRP | -0.12
28 | RRIRPRPPRLPRPRPRPPYWPRP | -0.123
29 | RRIRPRPPRLPRPRPRPQCSPRP | -0.0986
30 | RRIRPRPPRLPRPRPRPQDCPRP | 0.104
31 | RRIRPRPPRLPRPRPRPQECPRP | 0.0456
32 | RRIRPRPPRLPRPRPRPQGEPRP | 0.208
33 | RRIRPRPPRLPRPRPRPQHFPRP | -0.297
34 | RRIRPRPPRLPRPRPRPQKQPRP | -0.294
35 | RRIRPRPPRLPRPRPRPQLHPRP | -0.0604
36 | RRIRPRPPRLPRPRPRPQMDPRP | -0.395
37 | RRIRPRPPRLPRPRPRPQPPPRP | 0.509
38 | RRIRPRPPRLPRPRPRPQSNPRP | -0.285
39 | RRIRPRPPRLPRPRPRPQSRPRP | 0.161
40 | RRIRPRPPRLPRPRPRPQVPPRP | 0.0319
41 | RRIRPRPPRLPRPRPRPQWFPRP | -0.0872
42 | RRIRPRPPRLPRPRPRPQWMPRP | 0.00643
43 | RRIRPRPPRLPRPRPRPRAHPRP | 0.345
44 | RRIRPRPPRLPRPRPRPRCRPRP | 0.217

Row | Sequence | shrunken log2 fold change
45 | RRIRPRPPRLPRPRPRPREDPRP | 0.134
46 | RRIRPRPPRLPRPRPRPRGVPRP | 0.347
47 | RRIRPRPPRLPRPRPRPRHEPRP | 0.0886
48 | RRIRPRPPRLPRPRPRPRLKPRP | 0.344
49 | RRIRPRPPRLPRPRPRPRMGPRP | 0.38
50 | RRIRPRPPRLPRPRPRPRMKPRP | -0.285
51 | RRIRPRPPRLPRPRPRPRMSPRP | 0.232
52 | RRIRPRPPRLPRPRPRPRQAPRP | 0.0176
53 | RRIRPRPPRLPRPRPRPRTIPRP | 0.206
54 | RRIRPRPPRLPRPRPRPRTTPRP | 0.332
55 | RRIRPRPPRLPRPRPRPRVHPRP | -0.0821
56 | RRIRPRPPRLPRPRPRPRVYPRP | -0.311
57 | RRIRPRPPRLPRPRPRPRWCPRP | 0.171
58 | RRIRPRPPRLPRPRPRPRWGPRP | 0.509
59 | RRIRPRPPRLPRPRPRPRYKPRP | -0.269
60 | RRIRPRPPRLPRPRPRPSAMPRP | 0.0584
61 | RRIRPRPPRLPRPRPRPSCFPRP | -0.193
62 | RRIRPRPPRLPRPRPRPSCSPRP | -0.538
63 | RRIRPRPPRLPRPRPRPSDFPRP | -0.42
64 | RRIRPRPPRLPRPRPRPSDLPRP | -0.385
65 | RRIRPRPPRLPRPRPRPSGCPRP | 0.142
66 | RRIRPRPPRLPRPRPRPSGIPRP | -0.126

Row | Sequence | shrunken log2 fold change
67 | RRIRPRPPRLPRPRPRPSIPPRP | -0.436
68 | RRIRPRPPRLPRPRPRPSKCPRP | -0.0749
69 | RRIRPRPPRLPRPRPRPSKWPRP | -0.242
70 | RRIRPRPPRLPRPRPRPSQTPRP | 0.265
71 | RRIRPRPPRLPRPRPRPSRAPRP | 0.11
72 | RRIRPRPPRLPRPRPRPSSWPRP | 0.104
73 | RRIRPRPPRLPRPRPRPSTEPRP | -0.0218
74 | RRIRPRPPRLPRPRPRPSTGPRP | -0.263
75 | RRIRPRPPRLPRPRPRPSWFPRP | -0.248
76 | RRIRPRPPRLPRPRPRPSWNPRP | -0.158
77 | RRIRPRPPRLPRPRPRPTAGPRP | 0.252
78 | RRIRPRPPRLPRPRPRPTDSPRP | -0.245
79 | RRIRPRPPRLPRPRPRPTFDPRP | -0.0186
80 | RRIRPRPPRLPRPRPRPTGLPRP | 0.156
81 | RRIRPRPPRLPRPRPRPTGMPRP | 0.141
82 | RRIRPRPPRLPRPRPRPTIMPRP | -0.335
83 | RRIRPRPPRLPRPRPRPTISPRP | -0.218
84 | RRIRPRPPRLPRPRPRPTKEPRP | 0.193
85 | RRIRPRPPRLPRPRPRPTMMPRP | -0.216
86 | RRIRPRPPRLPRPRPRPTMRPRP | 0.744
87 | RRIRPRPPRLPRPRPRPTMYPRP | 0.125
88 | RRIRPRPPRLPRPRPRPTNCPRP | -0.169

Row | Sequence | shrunken log2 fold change
89 | RRIRPRPPRLPRPRPRPTNRPRP | -0.104
90 | RRIRPRPPRLPRPRPRPTNVPRP | -0.0325
91 | RRIRPRPPRLPRPRPRPTPSPRP | 0.312
92 | RRIRPRPPRLPRPRPRPTQGPRP | 0.753
93 | RRIRPRPPRLPRPRPRPTQNPRP | 0.534
94 | RRIRPRPPRLPRPRPRPTQWPRP | 0.248
95 | RRIRPRPPRLPRPRPRPTRDPRP | 0.481
96 | RRIRPRPPRLPRPRPRPTRLPRP | 0.769
97 | RRIRPRPPRLPRPRPRPTRSPRP | 0.365
98 | RRIRPRPPRLPRPRPRPTRVPRP | 0.547
99 | RRIRPRPPRLPRPRPRPTSFPRP | 0.0509
100 | RRIRPRPPRLPRPRPRPTSIPRP | -0.375
101 | RRIRPRPPRLPRPRPRPTSQPRP | 0.0453
102 | RRIRPRPPRLPRPRPRPTTDPRP | 0.0167
103 | RRIRPRPPRLPRPRPRPTVRPRP | 0.0204
104 | RRIRPRPPRLPRPRPRPTWNPRP | 0.00306
105 | RRIRPRPPRLPRPRPRPTYCPRP | 0.00402
106 | RRIRPRPPRLPRPRPRPVCSPRP | -0.168
107 | RRIRPRPPRLPRPRPRPVCVPRP | 0.146
108 | RRIRPRPPRLPRPRPRPVFMPRP | -0.185
109 | RRIRPRPPRLPRPRPRPVGAPRP | 0.561
